Biological target: SiaM (M-subunit of Photobacterium profundum SiaQM) (Photobacterium profundum)
Assay: AUC

SiaQ (Q-subunit of Photobacterium profundum SiaQM) (natural protein)
stoichiometry N (SiaQ per SiaM): 1

From article doi:10.1101/2022.02.13.480285
